Results from US20230277624A1 (ONCOSEC MEDICAL, published 2023).
One block for each binder: values may come before it.

Columns and labels:
[1] = target: T1, Recombinant mouse CTLA-4/human IgG1 chimera (R&D Systems) (mouse; human, UniProt P09793 36-162, limits assumed); assay: ELISA; mouse CTLA-4/human IgG1 chimera coated at 1 or 5 µg/mL, HEK293 conditioned medium (168 ng/mL), anti-mouse IgG-HRP, OD 450 nm
T1 construct: Bought reagent, immobilised in 96-well plates; also called recombinant mCTLA-4/Fc; recombinant CTLA4 protein; not shown: human IgG1 portion (Fc) of the bought chimera
Experimental: (§1) Plasmid encoded anti-CTLA4 scFv bound to recombinant CTLA4 protein. Transfection-derived secreted anti-CTLA4 (scFv) were evaluated for their binding capacity to CTLA-4. Recombinant mouse CTLA-4/human IgG1 chimera (R&D Systems) were immobilized in 96-well plates (1 or 5 μg/mL, or […]) for 18 hr at room temperature. Wells were washed three times with 0.1% Tween in PBS and blocked with 1% BSA in PBS. Conditioned medium from HEK293 cells transfected with 9H10-scFv (168 ng/mL) or 9D9-scFv (130 ng/mL) was added to the wells, and incubated for 2 h at room temperature. Wells were washed three times, and anti-mouse IgG-horseradish peroxidase (Jackson ImmunoResearch, 0.2 μg/mL) were added and incubated for 1.5 hours at room temperature. Wells were again washed three times, developed with HRP Substrate Reagent (R&D Systems) and stopped with Stop Solution, 2N sulfuric acid (R&D Systems). Optical density of each well was measured at 450 nm.

[2] = target: T1, Recombinant mouse CTLA-4/human IgG1 …; assay: ELISA; mouse CTLA-4/human IgG1 chimera coated at 1 or 5 µg/mL, HEK293 conditioned medium (130 ng/mL), anti-mouse IgG-HRP, OD 450 nm
Experimental: as §1

- binding result [1]: binds
B1: Igκ-HA-9H10 VLC-Linker-9H10 VHC-Linker-mIgG1 Fc domain (anti-CTLA-4 scFv) (Fc fusion)
scFv: YPYDVPDYAGAQPARSDIVMTQSPSSLAVSVGEKVTISCKSSQSLLYGSSHYLAWYQQKVGQSPKLLIYWASTRHTGIPDRFIGSGSGTDFTLSLSSVQAEDMADYFCQQYFSTPWTFGAGTRVEIKSGSGGGSGGGSGGGSQVQLLQSESELVKPGASVKLSCKTSGYTFTDYYIHWVKQKPGQGLEWIGLINPNNDGTNYNQKFQGKATLTADKSSSTAYMELNSLTFDDSVIYFCARASSRLRMARTTSDYYAMDYWGQGIQVTVSSVDSSGSGGCKPCICTVPEVSSVFIFPPKPKDVLTITLTPKVTCVVVDISKDDPEVQFSWFVDDVEVHTAQTQPREEQFNSTFRSVSELPIMHQDWLNGKEFKCRVNSAAFPAPIEKTISKTKGRPKAPQVYTIPPPKEQMAKDKVSLTCMITDFFPEDITVEWQWNGQPAENYKNTQPIMDTDGSYFVYSKLNVQKSNWEAGNTFTCSVLHEGLHNHHTEKSLSHSPGK
notes: Secreted into the conditioned medium of transfected HEK293 cells (168 ng/mL) and used as such; also called 9H10-scFv; plasmid encoded anti-CTLA4 scFv

- binding result [2]: binds
B2: Igκ-HA-9D9 VLC-Linker-9D9 VHC-Linker-mIgG1 Fc domain (anti-CTLA-4 scFv) (Fc fusion)
scFv: YPYDVPDYAGAQPARSDIVMTQTTLSLPVSLGDQASISCRSSQSIVHSNGNTYLEWYLQKPGQSPKLLIYKVSNRFSGVPDRFSGSGSGTDFTLKISRVEAEDLGVYYCFQGSHVPYTFGGGTKLEIKRADAAPTVSGSGGGSGGGSGGGSEAKLQESGPVLVKPGASVKMSCKASGYTFTDYYMNWVKQSHGKSLEWIGVINPYNGDTSYNQKFKGKATLTVDKSSSTAYMELNSLTSEDSAVYYCARYYGSWFAYWGQGTLITVSTAKTTPPSVYPLAPVDSSGSGGCKPCICTVPEVSSVFIFPPKPKDVLTITLTPKVTCVVVDISKDDPEVQFSWFVDDVEVHTAQTQPREEQFNSTFRSVSELPIMHQDWLNGKEFKCRVNSAAFPAPIEKTISKTKGRPKAPQVYTIPPPKEQMAKDKVSLTCMITDFFPEDITVEWQWNGQPAENYKNTQPIMDTDGSYFVYSKLNVQKSNWEAGNTFTCSVLHEGLHNHHTEKSLSHSPGK
notes: Secreted into the conditioned medium of transfected HEK293 cells (130 ng/mL) and used as such; also called 9D9-scFv; plasmid encoded anti-CTLA4 scFv
